Results taken from the Immune Epitope Database (IEDB).
pKd: −log10 of the molar value. Each block holds one sequence with its values, some of them ahead of it.

Columns and labels:
HLA-A*26:03 = experiment: IEDB peptide-MHC binding, purified MHC/competitive/fluorescence; filed as Kd, often an IC50 or EC50 that approximates it; ≥ and ≤ were set here for values at or beyond the usual limits of such assays; details: source organism: Orthomarburgvirus marburgense
HLA-A*26:01 [1] = experiment: as above; details: source organism: Orthomarburgvirus marburgense
HLA-B*39:01 = experiment: as above; details: source organism: Orthomarburgvirus marburgense
HLA-B*15:17 [2] = experiment: as above; details: source organism: Orthomarburgvirus marburgense
HLA-A*26:02 [3] = experiment: as above; details: source organism: Orthomarburgvirus marburgense
HLA-B*15:01 [4] = experiment: as above; details: source organism: Orthomarburgvirus marburgense
HLA-B*08:02 = experiment: IEDB peptide-MHC binding, purified MHC/direct/fluorescence; filed as Kd, often an IC50 or EC50 that approximates it; ≥ and ≤ were set here for values at or beyond the usual limits of such assays
HLA-B*73:01 = experiment: as above; details: source organism: Marburg virus - Musoke, Kenya, 1980
HLA-B*07:02 = experiment: as above
HLA-A*31:01 = experiment: as above
HLA-B*27:05 = experiment: as above
HLA-B*18:01 = experiment: as above; details: source organism: Marburg virus - Musoke, Kenya, 1980
HLA-B*48:01 = experiment: as above
HLA-A*68:02 = experiment: as above
HLA-A*01:01 = experiment: as above
HLA-B*15:09 = experiment: as above; details: source organism: Ravn virus - Ravn, Kenya, 1987
HLA-B*57:01 = experiment: as above
HLA-B*58:01 = experiment: as above
HLA-A*69:01 = experiment: as above
HLA-A*11:01 = experiment: as above
HLA-C*04:01 = experiment: as above
HLA-A*24:03 = experiment: as above
HLA-A*02:01 [5] = experiment: IEDB peptide-MHC binding, purified MHC/competitive/fluorescence; filed as Kd, often an IC50 or EC50 that approximates it; ≥ and ≤ were set here for values at or beyond the usual limits of such assays; details: source organism: Mycobacterium tuberculosis variant bovis BCG str. Pasteur 1173P2
HLA-B*08:03 = experiment: IEDB peptide-MHC binding, purified MHC/direct/fluorescence; filed as Kd, often an IC50 or EC50 that approximates it; ≥ and ≤ were set here for values at or beyond the usual limits of such assays; details: source organism: Mycobacterium tuberculosis str. Haarlem
HLA-B*08:01 = experiment: as above
HLA-B*15:17 [6] = experiment: as above; details: source organism: Mycobacterium tuberculosis
HLA-A*26:02 [7] = experiment: as above; details: source organism: Mycobacterium tuberculosis str. Haarlem
HLA-B*40:01 = experiment: as above
HLA-B*46:01 = experiment: as above; details: source organism: Mycobacterium tuberculosis
HLA-B*15:01 [8] = experiment: as above
HLA-B*15:02 = experiment: IEDB peptide-MHC binding, purified MHC/competitive/fluorescence; filed as Kd, often an IC50 or EC50 that approximates it; ≥ and ≤ were set here for values at or beyond the usual limits of such assays
HLA-B*35:01 = experiment: IEDB peptide-MHC binding, purified MHC/direct/fluorescence; filed as Kd, often an IC50 or EC50 that approximates it; ≥ and ≤ were set here for values at or beyond the usual limits of such assays; details: source organism: Corynebacterium glutamicum
HLA-A*03:01 = experiment: as above
HLA-A*02:01 [9] = experiment: as above
HLA-A*26:01 [10] = experiment: as above
HLA-A*23:01 = experiment: IEDB peptide-MHC binding, purified MHC/competitive/fluorescence; filed as Kd, often an IC50 or EC50 that approximates it; ≥ and ≤ were set here for values at or beyond the usual limits of such assays; details: source organism: Cryptosporidium parvum Iowa II
HLA-A*02:50 = experiment: as above
HLA-B*44:02 = experiment: IEDB peptide-MHC binding, purified MHC/direct/fluorescence; filed as Kd, often an IC50 or EC50 that approximates it; ≥ and ≤ were set here for values at or beyond the usual limits of such assays; details: source organism: Yersinia pestis
HLA-A*02:11 = experiment: as above; details: source organism: Burkholderia mallei ATCC 23344
[11] = source organism: Marburg virus - Musoke, Kenya, 1980
[12] = source organism: Mycobacterium tuberculosis str. Haarlem
[13] = source organism: Mycobacterium tuberculosis
[14] = source organism: Corynebacterium efficiens
[15] = source organism: Corynebacterium glutamicum
[16] = source organism: Haemophilus influenzae
[17] = source organism: Yersinia pestis
[18] = source organism: Burkholderia mallei

Sequence: ARHGEYAPF
pKd (HLA-A*26:03): ≤ 4.70
pKd (HLA-A*26:01 [1]): 5.40
pKd (HLA-B*39:01): 5.96
pKd (HLA-B*15:17 [2]): ≤ 4.70
pKd (HLA-A*26:02 [3]): 6.13
pKd (HLA-B*15:01 [4]): 5.48
pKd (HLA-B*08:02; source organism: Ravn virus - Ravn, Kenya, 1987): ≤ 4.70
pKd (HLA-B*73:01): ≤ 4.70
pKd (HLA-B*07:02; [11]): ≤ 4.70
pKd (HLA-A*31:01; [11]): ≤ 4.70
pKd (HLA-B*27:05; [11]): 6.77
pKd (HLA-B*18:01): ≤ 4.70
pKd (HLA-B*48:01; [11]): ≤ 4.70
pKd (HLA-A*68:02; [11]): ≤ 4.70
pKd (HLA-A*01:01; [11]): ≤ 4.70
pKd (HLA-B*15:09): ≤ 4.70
pKd (HLA-B*57:01; [11]): ≤ 4.70
pKd (HLA-B*58:01; [11]): ≤ 4.70
pKd (HLA-A*69:01; [11]): ≤ 4.70
pKd (HLA-A*11:01; [11]): ≤ 4.70

Sequence: MYTRNLLWL
pKd (HLA-C*04:01; source organism: Escherichia coli HS): ≤ 4.70
pKd (HLA-A*24:03; source organism: Escherichia coli): 8.74

Sequence: KLVGIELPK
pKd (HLA-A*02:01 [5]): ≤ 4.70
pKd (HLA-B*08:03): ≤ 4.70
pKd (HLA-B*08:02; [12]): ≤ 4.70
pKd (HLA-B*07:02; [13]): ≤ 4.70
pKd (HLA-A*31:01; [13]): 5.17
pKd (HLA-B*08:01; [12]): ≤ 4.70
pKd (HLA-B*27:05; [13]): ≤ 4.70
pKd (HLA-B*48:01; [13]): ≤ 4.70
pKd (HLA-A*68:02; [13]): ≤ 4.70
pKd (HLA-B*15:17 [6]): ≤ 4.70
pKd (HLA-A*01:01; [13]): ≤ 4.70
pKd (HLA-A*26:02 [7]): ≤ 4.70
pKd (HLA-B*57:01; [13]): ≤ 4.70
pKd (HLA-B*40:01; [13]): ≤ 4.70
pKd (HLA-B*58:01; [13]): ≤ 4.70
pKd (HLA-B*46:01): ≤ 4.70
pKd (HLA-B*15:01 [8]; [13]): ≤ 4.70
pKd (HLA-A*69:01; [13]): ≤ 4.70
pKd (HLA-A*11:01; [13]): 7.13

pKd (HLA-B*15:02; [14]): ≤ 4.70
pKd (HLA-B*35:01): 6.42
pKd (HLA-A*03:01; [14]): ≤ 4.70
pKd (HLA-B*07:02; [14]): ≤ 4.70
pKd (HLA-A*31:01; [14]): ≤ 4.70
pKd (HLA-B*08:01; [14]): ≤ 4.70
pKd (HLA-A*02:01 [9]; [14]): ≤ 4.70
pKd (HLA-A*26:01 [10]; [14]): ≤ 4.70
pKd (HLA-B*27:05; [14]): ≤ 4.70
pKd (HLA-A*01:01; [15]): ≤ 5.30
pKd (HLA-B*40:01; [14]): ≤ 4.70
pKd (HLA-B*58:01; [14]): ≤ 4.70
pKd (HLA-B*15:01 [8]; [15]): 6.70
pKd (HLA-A*69:01; [14]): ≤ 4.70
pKd (HLA-A*11:01; [14]): ≤ 4.70
Sequence: VQLQEYDTY

Sequence: TFMGMNVQF
pKd (HLA-A*23:01): 8.92
pKd (HLA-C*04:01; source organism: Cryptosporidium parvum Iowa II): ≤ 4.70

pKd (HLA-A*02:50; source organism: Haemophilus influenzae PittAA): 7.92
pKd (HLA-A*03:01; [16]): ≤ 4.70
pKd (HLA-B*07:02; [16]): ≤ 4.70
pKd (HLA-A*31:01; [16]): ≤ 4.70
pKd (HLA-B*08:01; [16]): ≤ 4.70
pKd (HLA-A*02:01 [9]; [16]): 5.29
pKd (HLA-A*26:01 [10]; [16]): ≤ 4.70
pKd (HLA-B*27:05; [16]): ≤ 4.70
pKd (HLA-A*01:01; [16]): 5.28
pKd (HLA-B*40:01; [16]): ≤ 4.70
pKd (HLA-B*58:01; [16]): ≤ 5.00
pKd (HLA-B*15:01 [8]; [16]): ≤ 4.70
pKd (HLA-A*69:01; [16]): ≤ 4.70
pKd (HLA-A*24:03; [16]): ≤ 4.70
pKd (HLA-A*11:01; [16]): ≤ 4.70
Sequence: LIFPAFFLC

Sequence: SLYDIITVM
pKd (HLA-B*15:02; source organism: Listeria monocytogenes): ≤ 4.70

Sequence: LLIDDSFSS
pKd (HLA-A*02:50; source organism: Yersinia pestis Nepal516): 8.60
pKd (HLA-A*03:01; [17]): ≤ 4.70
pKd (HLA-B*07:02; [17]): ≤ 4.70
pKd (HLA-A*31:01; [17]): ≤ 4.70
pKd (HLA-B*44:02): ≤ 4.70
pKd (HLA-B*08:01; [17]): ≤ 4.70
pKd (HLA-A*02:01 [9]; [17]): 6.19
pKd (HLA-A*26:01 [10]; [17]): ≤ 4.70
pKd (HLA-B*27:05; [17]): ≤ 4.70
pKd (HLA-A*01:01; [17]): ≤ 4.70
pKd (HLA-B*40:01; [17]): ≤ 4.70
pKd (HLA-B*58:01; [17]): ≤ 4.70
pKd (HLA-B*15:01 [8]; [17]): 5.72
pKd (HLA-A*69:01; [17]): ≤ 4.70
pKd (HLA-A*24:03; [17]): ≤ 4.70
pKd (HLA-A*11:01; [17]): ≤ 4.70

Sequence: MQQAYQCIV
pKd (HLA-A*02:50; source organism: Burkholderia mallei NCTC 10229): 7.94
pKd (HLA-A*02:01 [9]; [18]): 7.06
pKd (HLA-A*02:11): 7.55
pKd (HLA-A*69:01; [18]): 5.04
